The assay deals with T1, TAT419 polypeptide (human, UniProt P24530 27-442).
T1 construct: Full-length TAT419 on transfected cells (e.g. 293 cells) or on TAT419-expressing human melanoma cell lines; also called full-length TAT419 polypeptide; cell surface expressed TAT419 polypeptide
T1 sequence: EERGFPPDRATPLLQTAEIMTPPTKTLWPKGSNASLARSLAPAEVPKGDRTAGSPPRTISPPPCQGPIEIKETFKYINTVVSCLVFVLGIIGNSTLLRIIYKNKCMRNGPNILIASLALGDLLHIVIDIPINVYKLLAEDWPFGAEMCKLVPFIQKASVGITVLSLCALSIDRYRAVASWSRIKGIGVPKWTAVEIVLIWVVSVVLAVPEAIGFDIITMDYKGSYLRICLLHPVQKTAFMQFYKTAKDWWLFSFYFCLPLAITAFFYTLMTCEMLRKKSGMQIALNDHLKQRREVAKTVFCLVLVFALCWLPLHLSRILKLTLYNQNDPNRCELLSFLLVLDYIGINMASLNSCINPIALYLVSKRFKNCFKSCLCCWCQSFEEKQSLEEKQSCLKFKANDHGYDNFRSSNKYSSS
Nature of the assay: Western blots, TAT419-derived peptide variants expressed in 293 cells. The protocol: Binding analysis was also conducted to identify the approximate location of the epitopes. Several TAT419-derived peptide variants were expressed in 293 cells. Western blots were carried out using various of the murine anti-TAT419 monoclonal antibodies described herein.
A general note: Immunoblotting shows a protein as a band on a membrane.

B1: humanized anti-TAT419 antibody hu5E9.v1 (antibody, human IgG1, kappa, V domains shown)
VH: EVQLVESGGGLVQPGGSLRLSCAASGYTFTSYWMQWVRQAPGKGLEWIGTIYPGDGDTSYAQKFKGRATLSTDKSKNTAYLQMNSLRAEDTAVYYCARWGYAYDIDNWGQGTLVTVSS
VL: DIQMTQSPSSLSASVGDRVTITCKSSQSLLDSDGKTYLNWLQQKPGKAPKRLIYLVSKLDSGVPSRFSGSGSGTDFTLTISSLQPEDFATYYCWQGTHFPYTFGQGTKVEIKR
For the molecule B1, the binding result is recorded as “binds”.

B2: murine anti-TAT419 monoclonal antibody 5E9 (antibody, mouse IgG2a, kappa, V domains shown)
VH: QVQLLQSGAELARPGASVKLSCKASGYTFTSYWMQWVKQRPGQGLEWIGTIYPGDGDTSYAQKFKGKATLTTDKYSSTAYMQLSSLASEDSAVYYCARWGYAYDIDNWGQGTTVTVSS
VL: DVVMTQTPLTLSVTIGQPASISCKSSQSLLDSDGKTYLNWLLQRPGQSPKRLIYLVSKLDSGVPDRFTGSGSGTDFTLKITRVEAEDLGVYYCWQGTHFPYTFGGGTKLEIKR
notes: also called murine 5E9
With B2, the binding result is given as “binds”.

The record behind these values is patent US20110206702A1 (Genentech, published 2011).
